From patent publication US20220259283A1 (AARHUS UNIVERSITET, published 2022)

T1: sortilin (human, UniProt Q99523)
T1 construct: soluble, 6his-tagged; Injected at 25-250 nM over immobilized progranulin-6his as a comparison with SorCS2; also called hSortilin-6his; soluble human sortilin
T1 sequence (receptor, soluble form, looked up): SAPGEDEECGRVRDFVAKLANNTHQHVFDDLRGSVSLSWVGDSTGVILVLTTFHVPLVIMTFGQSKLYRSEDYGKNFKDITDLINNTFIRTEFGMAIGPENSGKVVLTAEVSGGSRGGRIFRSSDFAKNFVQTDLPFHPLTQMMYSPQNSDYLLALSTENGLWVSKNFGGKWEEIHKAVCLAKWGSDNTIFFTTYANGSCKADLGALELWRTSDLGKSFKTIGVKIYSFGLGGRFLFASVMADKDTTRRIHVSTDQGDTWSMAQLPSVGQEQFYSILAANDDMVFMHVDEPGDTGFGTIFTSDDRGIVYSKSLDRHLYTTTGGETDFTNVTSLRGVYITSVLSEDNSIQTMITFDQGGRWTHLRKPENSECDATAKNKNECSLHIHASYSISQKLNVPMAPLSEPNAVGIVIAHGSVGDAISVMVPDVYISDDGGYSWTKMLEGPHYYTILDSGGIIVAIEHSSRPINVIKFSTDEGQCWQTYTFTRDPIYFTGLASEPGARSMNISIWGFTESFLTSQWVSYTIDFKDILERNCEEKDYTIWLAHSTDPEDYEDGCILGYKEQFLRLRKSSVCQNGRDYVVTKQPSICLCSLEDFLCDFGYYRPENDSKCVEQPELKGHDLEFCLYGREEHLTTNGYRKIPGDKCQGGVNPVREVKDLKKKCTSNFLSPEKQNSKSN

B1: tetrapeptide RQLL (peptide)
peptide: RQLL
notes: also called RQLL peptide; PGRN-derived tetra peptide
B2: hPGRN-6his (human progranulin with a C-terminal 6his-tag) (ligand)
chain: TRCPDGQFCPVACCLDPGGASYSCCRPLLDKWPTTLSRHLGGPCQVDAHCSAGHSCIFTVSGTSSCCPFPEAVACGDGHHCCPRGFHCSADGRSCFQRSGNNSVGAIQCPDSQFECPDFSTCCVMVDGSWGCCPMPQASCCEDRVHCCPHGAFCDLVHTRCITPTGTHPLAKKLPAQRTNRAVALSSSVMCPDARSRCPDGSTCCELPSGKYGCCPMPNATCCSDHLHCCPQDTVCDLIQSKCLSKENATTDLLTKLPAHTVGDVKCDMEVSCPDGYTCCRLQSGAWGCCPFTQAVCCEDHIHCCPAGFTCDTQKGTCEQGPHQVPWMEKAPAHLSLPDPQALKRDVPCDNVSSCPSSDTCCQLTSGEWGCCPIPEAVCCSDHQHCCPQGYTCVAEGQCQRGSEIVAGLEKMPARRASLSHPRDIGCDQHTSCPVGQTCCPSLGGSWACCQLPHAVCCEDRQHCCPAGYTCNVKARSCEKEVVSAQPATFLARSPHVGVKDVECGEGHFCHDNQTCCRDNRQGWACCPYRQGVCCADRRHCCPAGFRCAARGTKCLRREAPRWDAPLRDPALRQLLHHHHHH
notes: Purified protein; also called progranulin-6his; human progranulin-6his
B3: Granulin E (ligand, UniProt P28799 518-593, looked up)
chain: DVECGEGHFCHDNQTCCRDNRQGWACCPYRQGVCCADRRHCCPAGFRCAARGTKCLRREAPRWDAPLRDPALRQLL
notes: domain: Granulin E; also called GrnE

Columns and labels:
[1] = molecular target: B2; experiment: SPR, RQLL peptide alone injected over immobilized C-terminal his-tagged progranulin on a CM5 chip (control trace of the competition experiment)
Experimental: (§1) Purified hPGRN-6his or hSorCS2-6his was immobilized on a CM5 sensor chip using standard amine-coupling. All sensograms were collected in PBS+0.05% Tween20 following injection of purified hPGRN-6his over immobilized hSorCS2-6his or hSortilin-6his and hSorCS2-6his with/without PGRN derived peptide over immobilized hPGRN-6his. Following this experimental setup we estimated the dissociation constant of the hSorCS2:hPGRN interaction to be 15 nM (FIG. 4). […] Inhibition experiments was performed using 100 nM hSorCS2 preincubated with 100 uM PGRN-derived tetra peptide and injected over immobilized hPGRN-6his (FIG. 7).

[2] = molecular target: T2, hSorCS2-6his (extracellular domain of human SorCS2 with a C-terminal 6His-tag) (human, UniProt Q96PQ0 51-1076); experiment: microscale thermophoresis, 25 nM labelled hSorCS2-6his, partner titrated, triplicates
T2 construct: Made in CHO-K1 cells and purified from the medium; For crystallisation the protein was deglycosylated with PNGaseF; also called soluble human SorCS2; hSorCS2 extracellular domain
T2 sequence (Q96PQ0 other isoform, or with tags, fused parts or gaps): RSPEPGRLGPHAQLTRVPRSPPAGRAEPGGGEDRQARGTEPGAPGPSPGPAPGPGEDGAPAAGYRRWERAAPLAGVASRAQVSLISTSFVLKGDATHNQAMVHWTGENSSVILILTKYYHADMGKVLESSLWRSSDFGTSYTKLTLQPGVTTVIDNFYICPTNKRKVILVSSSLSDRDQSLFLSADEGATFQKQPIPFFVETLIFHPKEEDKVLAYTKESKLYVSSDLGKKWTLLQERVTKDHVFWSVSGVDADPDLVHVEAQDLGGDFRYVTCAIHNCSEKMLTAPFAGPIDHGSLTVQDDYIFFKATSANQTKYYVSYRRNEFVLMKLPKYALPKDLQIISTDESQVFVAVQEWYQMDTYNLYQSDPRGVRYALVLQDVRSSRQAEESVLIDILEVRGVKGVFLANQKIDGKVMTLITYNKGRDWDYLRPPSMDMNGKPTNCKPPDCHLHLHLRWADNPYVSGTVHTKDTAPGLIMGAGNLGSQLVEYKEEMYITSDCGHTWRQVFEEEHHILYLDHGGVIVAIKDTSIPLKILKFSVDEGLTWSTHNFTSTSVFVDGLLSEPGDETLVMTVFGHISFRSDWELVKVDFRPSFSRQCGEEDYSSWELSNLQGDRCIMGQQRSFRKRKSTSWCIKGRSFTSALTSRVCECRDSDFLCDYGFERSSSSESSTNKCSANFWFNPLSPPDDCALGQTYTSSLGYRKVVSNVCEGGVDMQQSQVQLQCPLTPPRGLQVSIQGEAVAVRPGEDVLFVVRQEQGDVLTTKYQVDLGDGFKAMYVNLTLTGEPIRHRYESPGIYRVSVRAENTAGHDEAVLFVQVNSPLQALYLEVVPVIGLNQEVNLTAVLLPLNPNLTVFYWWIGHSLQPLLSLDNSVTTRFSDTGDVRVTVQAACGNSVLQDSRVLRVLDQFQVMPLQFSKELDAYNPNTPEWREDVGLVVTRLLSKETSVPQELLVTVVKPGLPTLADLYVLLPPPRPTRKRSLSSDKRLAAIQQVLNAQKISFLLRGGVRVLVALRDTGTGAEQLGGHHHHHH
Experimental: Equilibrium-binding affinities between hSorCS2 and hPGRN-6his, GrnE and RQLL peptide were assessed by MST. Purified hSorCS2-6his was labelled using the MO-003 monolith blue-NHS labelling kit according to manufactures recommendation. hSorCS2 was applied at a final concentration of 25 nM while the unlabelled binding partner was titrated in 1:1 dilutions (PBS+0.05% Tween20). MST measurements were performed in standard treated capilaiers on a monolith NT.115 instrument. For each binding partner the sigmoid-dose response curve was fitted with GraphPad prism 6 to yield an average dissociation constant.

[3] = molecular target: T2, hSorCS2-6his (extracellular domain of …); experiment: SPR, hSorCS2-6his injected over hPGRN-6his immobilized on a CM5 chip
Experimental: as §1

[4] = molecular target: T2, hSorCS2-6his (extracellular domain of …); experiment: SPR, hPGRN-6his injected over hSorCS2-6his immobilized on a CM5 chip
Experimental: as §1

sortilin = molecular target: T1, sortilin; experiment: SPR, soluble human sortilin injected over immobilized C-terminal his-tagged progranulin on a CM5 chip
Experimental: as §1

Row | Binder | binding result [1] | Kd [2] | Kd [3] | Kd [4] | binding result (sortilin)
1 | B1 | no binding (tested: 100 uM) | 1000 nM | – | – | –
2 | B2 | – | 47.8 nM | 7.4 nM | 15 nM | no binding (tested: 250 nM)
3 | B3 | – | 2000 nM | – | – | –
